# Source: publication PMC4303546 (Cell reports, 2014)
# B1: GST-Sesn2 (natural protein, UniProt P58004 1-480, looked up)
# chain: MIVADSECRAELKDYLRFAPGGVGDSGPGEEQRESRARRGPRGPSAFIPVEEVLREGAESLEQHLGLEALMSSGRVDNLAVVMGLHPDYFTSFWRLHYLLLHTDGPLASSWRHYIAIMAAARHQCSYLVGSHMAEFLQTGGDPEWLLGLHRAPEKLRKLSEINKLLAHRPWLITKEHIQALLKTGEHTWSLAELIQALVLLTHCHSLSSFVFGCGILPEGDADGSPAPQAPTPPSEQSSPPSRDPLNNSGGFESARDVEALMERMQQLQESLLRDEGTSQEEMESRFELEKSESLLVTPSADILEPSPHPDMLCFVEDPTFGYEDFTRRGAQAPPTFRAQDYTWEDHGYSLIQRLYPEGGQLLDEKFQAAYSLTYNTIAMHSGVDTSVLRRAIWNYIHCVFGIRYDDYDYGEVNQLLERNLKVYIKTVACYPEKTTRRMYNLFWRHFRHSEKVHVNLLLLEARMQAALLYALRAITRYMT
# Target: GATOR2 purified from HEK293T cells (UniProt Q9NXC5 1-875; Q6PJI9 1-974; Q96S15 1-790; Q96EE3 1-360; P55735 1-322)
# Experiment: pull-down
binder,measurement,value
B1,binding result,binds
